Patent US8859223B1, “Compositions and methods for imaging beta-secretase activity in living cells and organisms” (Duke University, priority 2012, dated 2014)
Square brackets hold non-standard residues; d marks the D form. Ends that are not written are not given here. 2Thi = N[C@@H](Cc1cccs1)C(=O)O; Nva = CCC[C@H](N)C(=O)O

target: T1, BACE (Homo sapiens, UniProt P56817); assay: Evaluation of peptides as BACE substrates (percent cleavage by LC-MS); format: biochemical; settings: 10 hr incubation with BACE enzyme, determined by LC-MS
Method: In order to evaluate a range of peptide amino acid sequences as BACE substrates for the probes, the peptides shown below in Table II were incubated with BACE enzyme under conditions suitable for enzyme activity and the percent cleavage after 10 hr was determined by LC-MS. Thus, in addition to SEQ ID NO: 1 present in β-MAP, the peptide sequences corresponding to SEQ ID NO's: 2-6 and 10-11 can also be useful as BACE substrates in the BACE probes of the present disclosure. For example, the specific BACE substrate sequence can be chosen based on the level of cleavage desired for a particular use for which the probe will be utilized. In can be envisioned that a higher or a lower amount of BACE probe cleavage could be desirable based on the different uses of the BACE probes.

T1 sequence (P56817 46-501): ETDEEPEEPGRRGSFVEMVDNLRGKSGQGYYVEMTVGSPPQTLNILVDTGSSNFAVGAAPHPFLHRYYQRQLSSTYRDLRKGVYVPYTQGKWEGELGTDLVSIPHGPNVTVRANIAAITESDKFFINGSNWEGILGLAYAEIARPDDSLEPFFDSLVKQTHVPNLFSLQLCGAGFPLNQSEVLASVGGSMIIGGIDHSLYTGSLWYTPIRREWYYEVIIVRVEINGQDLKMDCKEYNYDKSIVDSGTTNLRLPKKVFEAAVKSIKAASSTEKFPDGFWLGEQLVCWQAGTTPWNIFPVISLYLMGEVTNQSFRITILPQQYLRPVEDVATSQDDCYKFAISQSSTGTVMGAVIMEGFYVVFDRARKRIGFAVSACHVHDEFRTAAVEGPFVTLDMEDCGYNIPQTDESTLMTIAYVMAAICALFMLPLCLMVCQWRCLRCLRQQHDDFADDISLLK

| Substance | Percent Cleavage after 10 hr Incubation with BACE |
| --- | --- |
| APSL-DAHF (APSLDAHF) [peptide evaluated as BACE substrate] | 0.5% |
| ASNL-DAHF (ASNLDAHF) [peptide evaluated as BACE substrate] | Not Detected |
| DETL-DAHF (DETLDAHF) [peptide evaluated as BACE substrate] | 1% |
| EI(Thi)(Thi)-(Nva)AHF (EI[2Thi][2Thi][Nva]AHF) [BACE substrate polypeptide with unnatural amino acids thienyl and norvaline] | 25% |
| EIDL-MVLD (EIDLMVLD) [BACE substrate polypeptide] | 20% |
| EIDL-SSHD (EIDLSSHD) [BACE substrate polypeptide] | 5% |
| EVNF-EVEF (EVNFEVEF) [BACE substrate polypeptide] | 85% |
| EVNL-DAEF (EVNLDAEF) [BACE substrate polypeptide] | 50% |
| EVNL-DAHF (EVNLDAHF) [BACE substrate polypeptide] | 50% |
| EVNL-SSHD (EVNLSSHD) [BACE substrate polypeptide] | 3.5% |

target: T1, BACE; assay: not given; settings: compared to wild type; cited from earlier work

| Substance | increase in Kcat/KM |
| --- | --- |
| Swedish mutant APP: amyloid precursor protein with the Swedish mutation | 60 fold |
